Measured values published in paper PMC3690534 (Molecular Cell, 2013).
Residue numbers refer to the chain shown, from its start. Numbers in names are those of the source. Blank lines part the entries; values can stand above or below the binder they belong to. Square brackets hold non-standard residues; d marks the D form. pS = N[C@@H](COP(=O)(O)O)C(=O)O

Key:
[1] = biological target: T1, Saccharomyces cerevisiae Cdh1 WD40 domain (residues 241-550) (S. cerevisiae, UniProt P53197 241-550); assay: crystal structure
T1 sequence (looked up): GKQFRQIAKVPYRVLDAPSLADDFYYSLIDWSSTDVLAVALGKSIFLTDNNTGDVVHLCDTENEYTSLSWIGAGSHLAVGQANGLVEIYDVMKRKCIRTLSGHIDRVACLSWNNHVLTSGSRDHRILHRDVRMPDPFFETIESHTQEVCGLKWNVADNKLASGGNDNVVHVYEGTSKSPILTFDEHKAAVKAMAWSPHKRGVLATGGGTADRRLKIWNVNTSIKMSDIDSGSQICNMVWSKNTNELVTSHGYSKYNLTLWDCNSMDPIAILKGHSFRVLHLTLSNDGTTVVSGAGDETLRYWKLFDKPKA

[2] = biological target: T1, Saccharomyces cerevisiae Cdh1 WD40 …; assay: SAXS
[3] = biological target: T1, Saccharomyces cerevisiae Cdh1 WD40 …; assay: AUC
[4] = biological target: T1, Saccharomyces cerevisiae Cdh1 WD40 …; assay: SEC-MALS

binding result [1]: binds
B1: Acm1 central inhibitory region (residues 59-128) (domain or fragment, S. cerevisiae, UniProt Q08981 59-128, looked up)
chain: AQFMLYEETAEERNIAVHRHNEIYNNNNSVSNENNPSQVKENL[pS]PAKICPYERAFLREGGRIALKDLSVD

binding result [2]: binds
B2: Acm1^CIR-mNEN (Acm1^CIR-N90A/E91A/N92A) (domain or fragment, S. cerevisiae, UniProt Q08981 59-128, looked up)
chain: AQFMLYEETAEERNIAVHRHNEIYNNNNSVSAAANPSQVKENLSPAKICPYERAFLREGGRIALKDLSVD

binding result [3]: binds
B3: Acm1^ΔN (Acm1 residues 59-209), wild type (domain or fragment, S. cerevisiae, UniProt Q08981 59-209, looked up)
chain: AQFMLYEETAEERNIAVHRHNEIYNNNNSVSNENNPSQVKENLSPAKICPYERAFLREGGRIALKDLSVDEFKGYIQDPLTDETIPLTLPLGDKKISLPSFITPPRNSKISIFFTSKHQGQNPETKISRSTDDVSEKKVVRKLSFHVYEDE

binding result [4]: binds
B4: Acm1^ΔN-T161A (Acm1 residues 59-209, T161A) (domain or fragment, S. cerevisiae, UniProt Q08981 59-209, looked up)
chain: B3 chain with T103A
